In patent US20240350597A1 (UNIVERSITY COLLEGE DUBLIN, published 2024):

Legend:
[1] = target: T1, Transmembrane serine protease 2 (TMPRSS2) (UniProt O15393 106-492); experiment: ratio of second order inhibition rate constants, with A1AT as reference
T1 construct: also called rTMPRSS2

[2] = target: T1, Transmembrane serine protease 2 …; experiment: cell-based or functional assay

T1 sequence (O15393 106-492 limits assumed): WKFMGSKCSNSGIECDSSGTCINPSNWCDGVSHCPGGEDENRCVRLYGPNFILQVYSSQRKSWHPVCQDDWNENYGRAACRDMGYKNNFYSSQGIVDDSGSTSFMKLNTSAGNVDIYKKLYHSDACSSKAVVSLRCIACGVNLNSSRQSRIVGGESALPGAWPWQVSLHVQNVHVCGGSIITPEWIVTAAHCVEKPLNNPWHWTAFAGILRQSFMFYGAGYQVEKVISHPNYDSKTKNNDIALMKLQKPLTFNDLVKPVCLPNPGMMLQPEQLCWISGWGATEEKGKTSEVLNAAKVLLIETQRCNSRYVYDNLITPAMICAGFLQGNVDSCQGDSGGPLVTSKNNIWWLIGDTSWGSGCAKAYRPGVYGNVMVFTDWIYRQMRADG

B1: SerpinB3-TMP variant (other)
chain: MNSLSEANTKFMFDLFQQFRKSKENNIFYSPISITSALGMVLLGAKDNTAQQIKKVLHFDQVTENTTGKAATYHVDRSGNVHHQFQKLLTEFNKSTDAYELKIANKLFGEKTYLFLQEYLDAIKKFYQTSVESVDFANAPEESRKKINSWVESQTNEKIKNLIPEGNIGSNTTLVLVNAIYFKGQWEKKFNKEDTKEEKFWPNKNTYKSIQMMRQYTSFHFASLEDVQAKVLEIPYKGKDLSMIVLLPNEIDGLQKLEEKLTAEKLMEWTSLQNMRETRVDLHLPRFKVEESYDLKDTLRTMGMVDIFNGDADLSGMTGSRGLVLSGVLHKAFVEVTEEGAEAAAATAVIQFRVSPTSTNEEFHCNHPFLFFIRQNKTNSILFYGRFSSP
notes: also called SerpinB3 anti-TMPRSS2; modified SerpinB3-TMP
fold increase in TMPRSS2 specificity (k2) over A1AT [1]: 18 fold | TMPRSS2 inhibition at a 5:1 serpin:protease ratio (residual activity on Boc-QAR-AMC after 10 min incubation) [2]: 92%
